Measured values published in patent publication US20260193356A1 (BIOCYTOGEN PHARMACEUTICALS BEIJING, published 2026).

How the values were obtained:
[1] = target: T1, His-tagged human PDL1 protein (hPDL1-his, ACROBiosystems Inc., Cat #: PD1-H5229) (human, UniProt Q9NZQ7 19-238); experiment: SPR Biacore 8K, antibody captured on Protein A chip, His-tagged antigen as analyte, 1:1 model
T1 construct: Bought protein; not shown: His tag
Protocol: (§1) Dissociation was monitored for 400 seconds. The chip was regenerated after the last injection of each titration with Glycine (pH 2.0, 30 μL/min for 30 seconds).

[2] = target: T2, His-tagged Macaca fascicularis PDL1 protein (fasPDL1-his, ACROBiosystems Inc., Cat #: PD1-C52H4) (Macaca fascicularis, UniProt Q9NZQ7 19-238 (human entry)); experiment: as above
T2 construct: Bought protein; also called monkey PDL1; not shown: His tag
Protocol: as §1

[3] = target: T3, His-tagged mouse PDL1 protein (mPDL1-his, ACROBiosystems Inc., Cat #: PD1-M5220) (mouse, UniProt Q9EP73 19-238); experiment: as above
T3 construct: Bought protein; not shown: His tag
Protocol: as §1

[4] = target: T4, human PDL1 (hPDL1) expressed on CHO-S cells (CHO-S-hPDL1) (human, UniProt Q9NZQ7 19-290); experiment: flow cytometry on CHO-S-hPDL1 cells; antibody 0.1 µg/mL
Protocol: (§2) Then, after one wash with PBS, the cells were incubated with the secondary antibody anti-hIgG-Fc-Alex Flour 647 (RL1-H) (Jackson ImmunoResearch Laboratories, Inc., 109-606-170) at 4° C. for 15 minutes before flow cytometry analysis.

[5] = target: T5, monkey (Macaca fascicularis) PDL1 (fasPDL1) expressed on CHO-S cells (CHO-S-fasPDL1) (monkey (Macaca fascicularis), UniProt Q9NZQ7 19-290 (human entry)); experiment: flow cytometry on CHO-S-fasPDL1 cells; antibody 1 µg/mL
Protocol: as §2

[6] = target: T6, mouse (Mus musculu) PDL1 (mPDL1) expressed on CHO-S cells (CHO-S-mPDL1) (mouse, UniProt Q9EP73 19-290); experiment: flow cytometry on CHO-S-mPDL1 cells; antibody 0.1 µg/mL
Protocol: as §2

[7] = target: T7, His-tagged human B7-1 protein (hB7-1-his, Kactus, Cat #: B71-HM480) (human, UniProt P33681 35-242); experiment: SPR Biacore 8K, antibody captured on Protein A chip, His-tagged antigen as analyte
T7 construct: Bought protein; not shown: His tag
T7 sequence (looked up): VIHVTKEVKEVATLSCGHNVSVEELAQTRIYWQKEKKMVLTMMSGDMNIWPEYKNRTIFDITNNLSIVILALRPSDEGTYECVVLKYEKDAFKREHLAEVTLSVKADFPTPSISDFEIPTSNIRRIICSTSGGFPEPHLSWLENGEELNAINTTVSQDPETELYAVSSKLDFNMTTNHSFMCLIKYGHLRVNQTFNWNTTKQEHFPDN
Protocol: (§3) The His-tagged antigen protein at a concentration of 200 nM was then injected at 30 μL/min for 180 seconds. Dissociation was monitored for 400 seconds. The chip was regenerated after the last injection of each titration with Glycine (pH 2.0, 30 μL/min for 30 seconds).

[8] = target: T8, His-tagged human B7-H2 protein (hB7-H2-his, ACROBiosystems Inc., Cat #: B72-H5221) (human, UniProt O75144 19-258); experiment: as above
T8 construct: Bought protein; not shown: His tag
T8 sequence (looked up): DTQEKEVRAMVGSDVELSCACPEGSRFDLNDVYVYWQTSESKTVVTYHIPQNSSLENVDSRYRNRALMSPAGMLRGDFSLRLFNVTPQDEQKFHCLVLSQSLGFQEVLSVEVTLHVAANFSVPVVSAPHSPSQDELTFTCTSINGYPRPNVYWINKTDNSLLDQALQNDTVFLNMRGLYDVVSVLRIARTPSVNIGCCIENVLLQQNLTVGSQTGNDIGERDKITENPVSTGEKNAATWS
Protocol: as §3

[9] = target: T9, His-tagged human B7-H3 protein (hB7-H3-his, ACROBiosystems Inc., Cat #: B73-H52E2) (human, UniProt Q5ZPR3-2 29-245); experiment: as above
T9 construct: Bought protein; not shown: His tag
T9 sequence (looked up): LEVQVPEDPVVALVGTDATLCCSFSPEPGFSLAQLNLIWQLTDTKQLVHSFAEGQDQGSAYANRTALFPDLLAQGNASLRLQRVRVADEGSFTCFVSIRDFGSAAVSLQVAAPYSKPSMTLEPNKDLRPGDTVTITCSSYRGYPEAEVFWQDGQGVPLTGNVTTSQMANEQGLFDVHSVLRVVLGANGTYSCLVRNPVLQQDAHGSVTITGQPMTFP
Protocol: as §3

[10] = target: T10, His-tagged human PDL2 protein (hPDL2-his, ACROBiosystems Inc., Cat #: PD2-H5220) (human, UniProt Q9BQ51 20-219); experiment: as above
T10 construct: Bought protein; not shown: His tag
T10 sequence (looked up): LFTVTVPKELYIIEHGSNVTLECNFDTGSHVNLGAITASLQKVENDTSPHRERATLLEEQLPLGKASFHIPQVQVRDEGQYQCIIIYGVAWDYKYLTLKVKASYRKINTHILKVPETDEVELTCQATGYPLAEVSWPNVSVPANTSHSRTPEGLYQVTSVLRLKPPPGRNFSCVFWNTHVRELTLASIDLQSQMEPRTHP
Protocol: as §3

[11] = target: human PDL1 on helper cells CHO-aAPC-hPDL1 (Promega, Cat #: J1081) (human, UniProt Q9NZQ7 19-290); experiment: cell-based or functional assay
[12] = target: T5, monkey (Macaca fascicularis) PDL1 …; experiment: flow cytometry on CHO-S-fasPDL1 cells; antibody 0.1 µg/mL
Protocol: as §2

[13] = target: T4, human PDL1 (hPDL1) expressed on CHO-S …; experiment: flow cytometry on CHO-S-hPDL1 cells; antibody 1 µg/mL
Protocol: as §2

[14] = target: T6, mouse (Mus musculu) PDL1 (mPDL1) …; experiment: flow cytometry on CHO-S-mPDL1 cells; antibody 1 µg/mL
Protocol: as §2

T6 sequence (Q9EP73 19-290 limits assumed): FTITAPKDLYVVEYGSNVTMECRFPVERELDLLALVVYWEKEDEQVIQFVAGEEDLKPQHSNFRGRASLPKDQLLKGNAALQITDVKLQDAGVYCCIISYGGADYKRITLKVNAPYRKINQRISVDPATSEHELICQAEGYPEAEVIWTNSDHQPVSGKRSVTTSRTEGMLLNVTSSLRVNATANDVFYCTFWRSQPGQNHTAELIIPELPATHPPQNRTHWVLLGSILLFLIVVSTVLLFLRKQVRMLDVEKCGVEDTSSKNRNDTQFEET
T3 sequence (Q9EP73 19-238 limits assumed): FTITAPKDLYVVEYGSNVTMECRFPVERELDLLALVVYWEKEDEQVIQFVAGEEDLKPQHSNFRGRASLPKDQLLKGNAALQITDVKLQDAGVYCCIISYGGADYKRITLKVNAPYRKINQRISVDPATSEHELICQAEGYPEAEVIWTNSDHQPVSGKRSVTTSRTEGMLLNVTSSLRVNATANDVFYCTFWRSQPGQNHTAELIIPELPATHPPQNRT
T1 sequence (Q9NZQ7 19-238 limits assumed): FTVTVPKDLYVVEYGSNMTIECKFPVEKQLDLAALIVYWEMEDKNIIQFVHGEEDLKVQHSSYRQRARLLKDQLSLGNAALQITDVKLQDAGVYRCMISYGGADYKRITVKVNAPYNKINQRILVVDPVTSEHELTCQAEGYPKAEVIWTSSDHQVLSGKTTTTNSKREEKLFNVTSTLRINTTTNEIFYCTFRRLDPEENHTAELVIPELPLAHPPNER
T2 sequence (Q9NZQ7 other isoform, or with tags, fused parts or gaps limits assumed): as the sequence (Q9NZQ7 19-238 limits assumed) above, with A33T, A34S, S62N, R68Q, Q82R, F173L, T185A, T192I, H215L counted along it
T4 sequence (Q9NZQ7 19-290 limits assumed): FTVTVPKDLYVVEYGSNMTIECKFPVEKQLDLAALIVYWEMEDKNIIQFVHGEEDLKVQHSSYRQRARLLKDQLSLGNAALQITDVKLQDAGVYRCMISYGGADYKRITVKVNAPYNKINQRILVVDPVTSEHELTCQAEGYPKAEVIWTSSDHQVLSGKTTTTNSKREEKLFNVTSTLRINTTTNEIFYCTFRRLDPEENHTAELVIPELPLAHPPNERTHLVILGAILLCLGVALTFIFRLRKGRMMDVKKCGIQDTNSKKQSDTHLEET
Sequence of human PDL1 on helper cells CHO-aAPC-hPDL1 (Promega, Cat #: J1081) (Q9NZQ7 19-290 limits assumed): as above
T5 sequence (Q9NZQ7 other isoform, or with tags, fused parts or gaps limits assumed): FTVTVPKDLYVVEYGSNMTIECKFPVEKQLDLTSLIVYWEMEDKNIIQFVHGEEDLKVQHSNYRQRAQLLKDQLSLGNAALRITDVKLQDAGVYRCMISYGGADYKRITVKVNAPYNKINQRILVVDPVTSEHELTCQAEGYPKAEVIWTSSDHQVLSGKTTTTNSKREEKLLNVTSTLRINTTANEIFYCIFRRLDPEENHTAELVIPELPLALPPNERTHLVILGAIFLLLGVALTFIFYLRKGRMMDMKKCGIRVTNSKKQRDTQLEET

B1: B22E02-N297A (antibody, human IgG1, V domains shown)
VH: QVQLVQSGGGLVQPGRSLRLSCRASGFTFDGYSMNWVRQAPGKGLEWVGFIRSKGYGGTSESAASVKGRFTISRDDSKSIAYLQMNSLKTEDTAVYYCTRTRNWNDEGYFDYWGLGTLVTVSS
VL: DIQMTQSPSSLSASVGDRVTITCQASQDINKYLNWYQQKPGKAPKLLIYDASNSETGVPSRFSGSGSGTDFTFTISSLQPEDISTYYCQQYDILPITFGQGTRLEIK
notes: Human IgG1 with N297A (EU numbering) in the Fc
For B1, which Kd [1] is on record?
The Kd was 1.29 nM.

What about the koff [1] of the same binder?
The koff was 0.000411 s⁻¹.

What about the kon [1] of the same binder?
The kon was 318000 M⁻¹ s⁻¹.

And the Kd [2]?
Its Kd is 0.765 nM.

What about the koff [2] of the same binder?
The koff was 0.000331 s⁻¹.

And the kon [2]?
Its kon is 432000 M⁻¹ s⁻¹.

And the Kd [3]?
The Kd was 17.6 nM.

And the koff [3]?
Its koff is 0.00152 s⁻¹.

And the kon [3]?
The kon was 86200 M⁻¹ s⁻¹.

And the “Percentage of Positive Cells (%)” value [4]?
Its value is 72.2%.

What about the “Percentage of Positive Cells (%)” value [5] of the same binder?
The value was 74.4%.

What about the “Percentage of Positive Cells (%)” value [6] of the same binder?
The value was 66.1%.

Does B1 bind [7]?
Result: no binding (tested: 200 nM)

Does B1 bind [8]?
Result: no binding (tested: 200 nM)

Does B1 bind [9]?
Result: no binding (tested: 200 nM)

Does B1 bind [10]?
Result: no binding (tested: 200 nM)

What about the “IC50 (µg/mL), Blockade of the binding of PDL1 and PD-1 (luciferase, CHO-aAPC-hPDL1 + Jurkat-Luc-hPD1 cells)” value (shortened to “IC50 (µg/mL), Blockade”) [11] of the same binder?
Its value is 0.745 µg/mL.

What about the “Percentage of Positive Cells (%)” value [12] of the same binder?
The value was 66.9%.

What about the “Percentage of Positive Cells (%)” value [13] of the same binder?
Its value is 87.1%.

And the “Percentage of Positive Cells (%)” value [14]?
Its value is 77.1%.

B2: B21A06-N297A (antibody, human IgG1, V domains shown)
VH: QVQLQESGGDVVQPGRSLRLSCAASGFTFNNYGMHWVRQAPSKGLEWVAFIWYDGSNKYYGDSVKGRFTISRDNSKNTLYLQMNSLRAEDTALYYCARGDNWNSDAFDIWGPGTMVTVSS
VL: EIVMTQSPLSLPVTLGQPASISCRSSQSLVYTNGNTYLNWFQQRPGQSPRRLIYKVSSRDSGVPDRFSGSGSGTDFTLKISRVAAEDVGLYYCMQGTHWPLTFGGGTKVEIK
With B2 as the binder, how does the Kd [1] read?
The Kd was 8.65 nM.

And the koff [1]?
The koff was 0.00167 s⁻¹.

And the kon [1]?
The kon was 193000 M⁻¹ s⁻¹.

And the Kd [2]?
Its Kd is 5.77 nM.

And the koff [2]?
The koff was 0.00156 s⁻¹.

And the kon [2]?
The kon was 271000 M⁻¹ s⁻¹.

What about the Kd [3] of the same binder?
The Kd was 8.04 nM.

And the koff [3]?
Its koff is 0.00187 s⁻¹.

What about the kon [3] of the same binder?
The kon was 232000 M⁻¹ s⁻¹.

What about the “Percentage of Positive Cells (%)” value [4] of the same binder?
Its value is 65.8%.

And the “Percentage of Positive Cells (%)” value [5]?
The value was 70.2%.

What about the “Percentage of Positive Cells (%)” value [6] of the same binder?
Its value is 65.2%.

Does B2 bind [7]?
Result: no binding (tested: 200 nM)

Does B2 bind [8]?
Result: no binding (tested: 200 nM)

Does B2 bind [9]?
Result: no binding (tested: 200 nM)

Does B2 bind [10]?
Result: no binding (tested: 200 nM)

And the “IC50 (µg/mL), Blockade” value [11]?
Its value is 1.14 µg/mL.

And the “Percentage of Positive Cells (%)” value [12]?
The value was 65%.

And the “Percentage of Positive Cells (%)” value [13]?
The value was 83.2%.

And the “Percentage of Positive Cells (%)” value [14]?
Its value is 75.2%.

B3: B20B02-N297A (antibody, human IgG1, V domains shown)
VH: QVQLQQSGGGVVQPGRSLRLSCAASGFTFSTYGMHWVRQAPGKGLEWVAALSFDGGNIYYGDSVKGRFTISRDNSKNTLYLQMNSLRAEDTALYYCAKARLPYSYDAVDYWGQGTLVTVSS
VL: EIVMTQSPATLSVSPGERATLSCRASQSVSSNLAWYQQKPGQAPRLLIYDTSTRAIGIPARFSGSGSGTEFTLTISSLQSEDFAIYYCHQYNFWPPITLGQGTRLEIK
For B3, which Kd [1] is on record?
Its Kd is 1.16 nM.

And the koff [1]?
The koff was 0.000184 s⁻¹.

What about the kon [1] of the same binder?
Its kon is 159000 M⁻¹ s⁻¹.

What about the Kd [2] of the same binder?
The Kd was 0.672 nM.

What about the koff [2] of the same binder?
The koff was 0.000146 s⁻¹.

And the kon [2]?
The kon was 217000 M⁻¹ s⁻¹.

What about the Kd [3] of the same binder?
The Kd was 1.28 nM.

And the koff [3]?
The koff was 0.000168 s⁻¹.

And the kon [3]?
The kon was 131000 M⁻¹ s⁻¹.

What about the “Percentage of Positive Cells (%)” value [4] of the same binder?
The value was 69%.

And the “Percentage of Positive Cells (%)” value [5]?
Its value is 79.8%.

What about the “Percentage of Positive Cells (%)” value [6] of the same binder?
Its value is 70.6%.

Does B3 bind [7]?
Result: no binding (tested: 200 nM)

Does B3 bind [8]?
Result: no binding (tested: 200 nM)

Does B3 bind [9]?
Result: no binding (tested: 200 nM)

Does B3 bind [10]?
Result: no binding (tested: 200 nM)

And the “IC50 (µg/mL), Blockade” value [11]?
The value was 1.13 µg/mL.

And the “Percentage of Positive Cells (%)” value [12]?
Its value is 65.9%.

What about the “Percentage of Positive Cells (%)” value [13] of the same binder?
Its value is 89.3%.

What about the “Percentage of Positive Cells (%)” value [14] of the same binder?
The value was 87.3%.

B4: B20A09-N297A (antibody, V domains shown)
VH: QVQLQQSGPGLVKPSQTLSLTCAISRDGVSNISGAWNWIRQSPSRGLEWLGRTYYRAMWYKDYALSVKSRITINPDTSKNQFSLQLNSVTPEDTAVYYCAREEYSRGWGAFDIWGQGTMVTVSS
VL: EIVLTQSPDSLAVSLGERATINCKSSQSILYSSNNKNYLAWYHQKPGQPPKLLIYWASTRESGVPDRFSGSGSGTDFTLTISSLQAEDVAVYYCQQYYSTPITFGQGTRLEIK
For B4, which Kd [1] is on record?
The Kd was 4.6 nM.

And the koff [1]?
The koff was 0.000721 s⁻¹.

What about the kon [1] of the same binder?
The kon was 157000 M⁻¹ s⁻¹.

And the Kd [2]?
Its Kd is 2.95 nM.

What about the koff [2] of the same binder?
Its koff is 0.000612 s⁻¹.

What about the kon [2] of the same binder?
Its kon is 207000 M⁻¹ s⁻¹.

And the Kd [3]?
The Kd was 41.5 nM.

What about the koff [3] of the same binder?
The koff was 0.00955 s⁻¹.

What about the kon [3] of the same binder?
The kon was 230000 M⁻¹ s⁻¹.

What about the “Percentage of Positive Cells (%)” value [4] of the same binder?
The value was 69.9%.

What about the “Percentage of Positive Cells (%)” value [5] of the same binder?
The value was 72%.

And the “Percentage of Positive Cells (%)” value [6]?
Its value is 67.8%.

Does B4 bind [7]?
Result: no binding (tested: 200 nM)

Does B4 bind [8]?
Result: no binding (tested: 200 nM)

Does B4 bind [9]?
Result: no binding (tested: 200 nM)

Does B4 bind [10]?
Result: no binding (tested: 200 nM)

And the “IC50 (µg/mL), Blockade” value [11]?
Its value is 0.789 µg/mL.

And the “Percentage of Positive Cells (%)” value [12]?
The value was 64.2%.

And the “Percentage of Positive Cells (%)” value [13]?
The value was 83.1%.

What about the “Percentage of Positive Cells (%)” value [14] of the same binder?
Its value is 79%.
